Source: patent publication US20190159997A1, “COMPOSITIONS COMPRISING POLYESTERS OF BIOLOGICAL ORIGIN AND BIOCOMPATIBLE INORGANIC COMPOUNDS, AND USES THEREOF IN THE COSMETIC FIELD” (BIO-ON S.p.A., priority 2016, published 2019)

Test system: Streptococcus mutans ATCC 35668
Test: antibacterial effectiveness by bacterial count on Petri plates
Assay type: cell-based
Conditions: growth of Streptococcus mutans ATCC 35668
Protocol: Following the same procedure described in Example 4, two compositions of lactoferrin, hydroxyapatite and PHA were prepared, using solutions of lactoferrin with concentrations equal to 60 mg/ml and 80 mg/ml, and the same aqueous suspensions of HA and PHA used in Example (weight ratio between lactoferrin and mixture of HA+PHA equal to 1:1). The antibacterial effectiveness of these compositions was assessed, by means of bacterial count on Petri plates with respect to the growth of Streptococcus mutans ATCC 35668.

B1: lactoferrin (protein, UniProt P02788 20-710, looked up)
Lactotransferrin: GRRRSVQWCAVSQPEATKCFQWQRNMRKVRGPPVSCIKRDSPIQCIQAIAENRADAVTLDGGFIYEAGLAPYKLRPVAAEVYGTERQPRTHYYAVAVVKKGGSFQLNELQGLKSCHTGLRRTAGWNVPIGTLRPFLNWTGPPEPIEAAVARFFSASCVPGADKGQFPNLCRLCAGTGENKCAFSSQEPYFSYSGAFKCLRDGAGDVAFIRESTVFEDLSDEAERDEYELLCPDNTRKPVDKFKDCHLARVPSHAVVARSVNGKEDAIWNLLRQAQEKFGKDKSPKFQLFGSPSGQKDLLFKDSAIGFSRVPPRIDSGLYLGSGYFTAIQNLRKSEEEVAARRARVVWCAVGEQELRKCNQWSGLSEGSVTCSSASTTEDCIALVLKGEADAMSLDGGYVYTAGKCGLVPVLAENYKSQQSSDPDPNCVDRPVEGYLAVAVVRRSDTSLTWNSVKGKKSCHTAVDRTAGWNIPMGLLFNQTGSCKFDEYFSQSCAPGSDPRSNLCALCIGDEQGENKCVPNSNERYYGYTGAFRCLAENAGDVAFVKDVTVLQNTDGNNNEAWAKDLKLADFALLCLDGKRKPVTEARSCHLAMAPNHAVVSRMDKVERLKQVLLHQQAKFGRNGSDCPDKFCLFQSETKNLLFNDNTECLARLHGKTTYEKYLGPQYVAGITNLKKCSTSPLLEACEFLRK
notes: lactoferrin alone, aqueous solution with a concentration of 60 mg/ml and 80 mg/ml; protein having an antioxidizing action
- Reduction bacterial growth (%) (lactoferrin solution 60 mg/ml): 30%
- Reduction bacterial growth (%) (lactoferrin solution 80 mg/ml): 35%
